As a reminder, the stoichiometry N is a count of units in the complex or per binding partner.

For one substance, stoichiometry N results are on record in article PMC8151288.

Assay [1] addresses His6-PA3027 (Pseudomonas aeruginosa PAO1161) (UniProt Q9HZH9). The assay can be described thus: SEC-MALS; 100 uL of 1 mg/mL His6-PA3027 on Superdex 200 Increase 10/300 in Buffer S (20 mM MES pH 6.5, 200 mM (NH4)2SO4, 200 mM NaCl), room temperature, 0.5 mL/min; monomer and dimer. (In gel filtration, larger molecules generally elute earlier.)
Assay [2] shares this target. The assay can be described thus: cross-linking; purified His6-PA3027 cross-linked with increasing concentration of glutaraldehyde; Western blot with anti-His antibodies. For orientation: Immunoblotting shows a protein as a band on a membrane.

Take “His6-PA3027 (from UniProt Q9HZH9 1-343) (natural protein)”: the stoichiometry N in assay [1] and in assay [2] was 2 each time.
